Measured values: patent publication US12351616B2, “Peptides and combination of peptides for use in immunotherapy against esophageal cancer and other cancers” (Immatics Biotechnologies GmbH, priority 2015, dated 2025)

Molecular target: HLA-A*02:01 (Homo sapiens, UniProt P04439, D140Y/D185E/D98H/E176V/E277Q/G131W/G231S/I119V/I121R/I166T/I218V/L300P/L318F/N151K/N90K/P208A/P217A/Q86G/Q94H/R138H/R169H/T345S)
Experiment: MHC binding assay: UV-ligand exchange with β2m ELISA
Conditions: peptide exchange yield, binding to HLA-A*02:01
Text: Candidate peptides for T cell based therapies according to the present invention were further tested for their MHC binding capacity (affinity). The individual peptide-MHC complexes were produced by UV-ligand exchange, where a UV-sensitive peptide is cleaved upon UV-irradiation, and exchanged with the peptide of interest as analyzed. Only peptide candidates that can effectively bind and stabilize the peptide-receptive MHC molecules prevent dissociation of the MHC complexes. To determine the yield of the exchange reaction, an ELISA was performed based on the detection of the light chain (β2m) of stabilized MHC complexes. The assay was performed as generally described in Rodenko et al. (Rodenko et al., 2006).
96 well MAXISorp plates (NUNC) were coated over night with 2 ug/ml streptavidin in PBS at room temperature, washed 4× and blocked for 1 h at 37° C. in 2% BSA containing blocking buffer. Refolded HLA-A*02:01/MLA-001 monomers served as standards, covering the range of 15-500 ng/ml. Peptide-MHC monomers of the UV-exchange reaction were diluted 100 fold in blocking buffer. Samples were incubated for 1 h at 37° C., washed four times, incubated with 2 ug/ml HRP conjugated anti-β2m for 1 h at 37° C., washed again and detected with TMB solution that is stopped with […]. Absorption was measured at 450 nm. Candidate peptides that show a high exchange yield (preferably higher than 50%, most preferred higher than 75%) are generally preferred for a generation and production of antibodies or fragments thereof, and/or T cell receptors or fragments thereof, as they show sufficient avidity to the MHC molecules and prevent dissociation of the MHC complexes.

Substance | Peptide exchange
25 (LLPPPPPPA; listed as Homo sapiens) [compound 25] | +++ (≥50 = +++)
59 (SLLDTLREV; listed as Homo sapiens) [compound 59] | +++ (≥50 = +++)
7 (SIFEGLLSGV; listed as Homo sapiens) [compound 7] | ++ (≥20% = ++)
84 (SLAESLDQA; listed as Homo sapiens) [compound 84] | +++ (≥50 = +++)
54 (YQDLLNVKM; listed as Homo sapiens) [compound 54] | +++ (≥50 = +++)
45 (MLTELEKAL; listed as Homo sapiens) [compound 45] | ++ (≥20% = ++)
71 (ASDPILYRPVAV; listed as Homo sapiens) [compound 71] | +++ (≥50 = +++)
90 (SIYEYYHAL; listed as Homo sapiens) [compound 90] | +++ (≥50 = +++)
18 (FLLDQVQLGL; listed as Homo sapiens) [compound 18] | +++ (≥50 = +++)
38 (IAAIRGFLV; listed as Homo sapiens) [compound 38] | +++ (≥50 = +++)
23 (KLSDSATYL; listed as Homo sapiens) [compound 23] | +++ (≥50 = +++)
48 (SMHQMLDQTL; listed as Homo sapiens) [compound 48] | ++ (≥20% = ++)
73 (KITEAIQYV; listed as Homo sapiens) [compound 73] | +++ (≥50 = +++)
36 (FLLRFSQDNA; listed as Homo sapiens) [compound 36] | ++ (≥20% = ++)
52 (VAIGGVDGNVRL; listed as Homo sapiens) [compound 52] | ++ (≥20% = ++)
42 (TQTAVITRI; listed as Homo sapiens) [compound 42] | + (≥10% = +)
68 (PAVLQSSGLYSL; listed as Homo sapiens) [compound 68] | ++ (≥20% = ++)
87 (FLDNGPKTI; listed as Homo sapiens) [compound 87] | +++ (≥50 = +++)
56 (ALVEVTEHV; listed as Homo sapiens) [compound 56] | ++ (≥20% = ++)
44 (ATGNDRKEAAENSL; listed as Homo sapiens) [compound 44] | +++ (≥50 = +++)
82 (HLLGHLEQA; listed as Homo sapiens) [compound 82] | +++ (≥50 = +++)
91 (KLIDDVHRL; listed as Homo sapiens) [compound 91] | ++++ (≥75% = ++++)
78 (KVANIIAEV; listed as Homo sapiens) [compound 78] | ++ (≥20% = ++)
34 (SLVSEQLEPA; listed as Homo sapiens) [compound 34] | +++ (≥50 = +++)
3 (TASAITPSV; listed as Homo sapiens) [compound 3] | +++ (≥50 = +++)

Substance | Peptide exchange
93 (VLINTSVTL; listed as Homo sapiens) [compound 93] | +++ (≥50 = +++)
11 (ALWLPTDSATV; listed as Homo sapiens) [compound 11] | +++ (≥50 = +++)
14 (RLPNAGTQV; listed as Homo sapiens) [compound 14] | ++++ (≥75% = ++++)
64 (GLTDVIRDV; listed as Homo sapiens) [compound 64] | ++++ (≥75% = ++++)
81 (AVLPHVDQV; listed as Homo sapiens) [compound 81] | +++ (≥50 = +++)
26 (MLAEKLLQA; listed as Homo sapiens) [compound 26] | + (≥10% = +)
15 (LLANGVYAA; listed as Homo sapiens) [compound 15] | + (≥10% = +)
10 (SLDENSDQQV; listed as Homo sapiens) [compound 10] | +++ (≥50 = +++)
61 (TQTTHELTI; listed as Homo sapiens) [compound 61] | +++ (≥50 = +++)
16 (VLAEGGEGV; listed as Homo sapiens) [compound 16] | +++ (≥50 = +++)
43 (KVVGKDYLL; listed as Homo sapiens) [compound 43] | + (≥10% = +)
58 (LILESIPVV; listed as Homo sapiens) [compound 58] | ++ (≥20% = ++)
40 (GLAFSLYQA; listed as Homo sapiens) [compound 40] | ++ (≥20% = ++)
51 (KLFGHLTSA; listed as Homo sapiens) [compound 51] | ++ (≥20% = ++)
83 (ALADGVVSQA; listed as Homo sapiens) [compound 83] | +++ (≥50 = +++)
17 (MISRTPEV; listed as Homo sapiens) [compound 17] | ++ (≥20% = ++)
63 (LAYTLGVKQL; listed as Homo sapiens) [compound 63] | +++ (≥50 = +++)
21 (IVREFLTAL; listed as Homo sapiens) [compound 21] | +++ (≥50 = +++)
8 (ALLDGGSEAYWRV; listed as Homo sapiens) [compound 8] | +++ (≥50 = +++)
24 (LLFAGTMTV; listed as Homo sapiens) [compound 24] | ++ (≥20% = ++)
32 (YMLDIFHEV; listed as Homo sapiens) [compound 32] | ++ (≥20% = ++)
79 (GQDVGRYQV; listed as Homo sapiens) [compound 79] | ++ (≥20% = ++)
80 (ALQEALENA; listed as Homo sapiens) [compound 80] | ++ (≥20% = ++)
72 (FLPPAQVTV; listed as Homo sapiens) [compound 72] | ++ (≥20% = ++)
74 (ILASLATSV; listed as Homo sapiens) [compound 74] | +++ (≥50 = +++)

Substance | Peptide exchange
9 (HLIAEIHTA; listed as Homo sapiens) [compound 9] | +++ (≥50 = +++)
57 (GLAPNTPGKA; listed as Homo sapiens) [compound 57] | +++ (≥50 = +++)
89 (SLADSLYNL; listed as Homo sapiens) [compound 89] | ++ (≥20% = ++)
39 (LVRDTQSGSL; listed as Homo sapiens) [compound 39] | ++ (≥20% = ++)
65 (YVVGGFLYQRL; listed as Homo sapiens) [compound 65] | +++ (≥50 = +++)
28 (SLDGFTIQV; listed as Homo sapiens) [compound 28] | ++ (≥20% = ++)
76 (KVADYIPQL; listed as Homo sapiens) [compound 76] | +++ (≥50 = +++)
33 (GLDVTSLRPFDL; listed as Homo sapiens) [compound 33] | +++ (≥50 = +++)
67 (SMNGGVFAV; listed as Homo sapiens) [compound 67] | ++ (≥20% = ++)
13 (SLSPVILGV; listed as Homo sapiens) [compound 13] | ++++ (≥75% = ++++)
37 (YTQPFSHYGQAL; listed as Homo sapiens) [compound 37] | +++ (≥50 = +++)
60 (VVMEELLKV; listed as Homo sapiens) [compound 60] | ++ (≥20% = ++)
31 (VLPKLYVKL; listed as Homo sapiens) [compound 31] | ++ (≥20% = ++)
70 (FVLDTSESV; listed as Homo sapiens) [compound 70] | +++ (≥50 = +++)
53 (VVVTGLTLV; listed as Homo sapiens) [compound 53] | ++ (≥20% = ++)
85 (NIIELVHQV; listed as Homo sapiens) [compound 85] | ++++ (≥75% = ++++)
41 (GLESEELEPEEL; listed as Homo sapiens) [compound 41] | ++ (≥20% = ++)
27 (NLREGDQLL; listed as Homo sapiens) [compound 27] | +++ (≥50 = +++)
62 (ALYEYQPLQI; listed as Homo sapiens) [compound 62] | ++ (≥20% = ++)
49 (GLMKDIVGA; listed as Homo sapiens) [compound 49] | +++ (≥50 = +++)
30 (SLNGNQVTV; listed as Homo sapiens) [compound 30] | + (≥10% = +)
46 (YTAQIGADIAL; listed as Homo sapiens) [compound 46] | +++ (≥50 = +++)
92 (SILRHVAEV; listed as Homo sapiens) [compound 92] | ++ (≥20% = ++)
55 (GAIDLLHNV; listed as Homo sapiens) [compound 55] | ++ (≥20% = ++)
